Results as given in patent US7125969, “ETS-related gene overexpressed in human breast and epithelial cancers” (The Regents of the University of California).
Numbering of substitutions follows the chain as printed.

T1: ESX (full-length, His-tagged) (Homo sapiens, UniProt P78545 SEQ:1-371)
T1 sequence: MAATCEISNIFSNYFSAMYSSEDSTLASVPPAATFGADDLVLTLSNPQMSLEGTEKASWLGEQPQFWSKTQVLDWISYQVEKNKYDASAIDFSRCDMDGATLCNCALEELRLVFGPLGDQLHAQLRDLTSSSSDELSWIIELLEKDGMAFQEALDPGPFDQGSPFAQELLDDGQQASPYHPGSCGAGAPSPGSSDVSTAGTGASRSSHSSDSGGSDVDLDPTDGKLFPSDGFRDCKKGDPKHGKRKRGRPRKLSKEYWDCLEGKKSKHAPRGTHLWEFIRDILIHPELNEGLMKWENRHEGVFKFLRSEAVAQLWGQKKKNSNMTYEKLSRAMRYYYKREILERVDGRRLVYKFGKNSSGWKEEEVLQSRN

T2: ESX (271-371, ETS DNA-binding domain) (Homo sapiens, UniProt P78545 SEQ:271-371)
T2 sequence: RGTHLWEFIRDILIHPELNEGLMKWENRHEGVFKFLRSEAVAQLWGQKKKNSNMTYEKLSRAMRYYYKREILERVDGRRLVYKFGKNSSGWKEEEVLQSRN

B1: TA5 WT (HER2/neu promoter -50 to -20) (dsDNA)
DNA 1: GGAGGAGGGCTGCTTGAGGAAGTATAAGAAT
DNA 2: ATTCTTATACTTCCTCAAGCAGCCCTCCTCC
B2: TA5 m2 (dsDNA)
DNA 1: B1 DNA 1 with A17C
DNA 2: B1 DNA 2 with T15G
B3: TA5 m1 (dsDNA)
DNA 1: B1 DNA 1 with G9T, C10A
DNA 2: B1 DNA 2 with G22T, C23A
B4: TA5 m3 (dsDNA)
DNA 1: B1 DNA 1 with G19A, A20G
DNA 2: B1 DNA 2 with T12C, C13T
B5: TA5 m5 (dsDNA)
DNA 1: B1 DNA 1 with T23C
DNA 2: B1 DNA 2 with A9G
B6: TA5 m4 (dsDNA)
DNA 1: B1 DNA 1 with G18C, G19C
DNA 2: B1 DNA 2 with C13G, C14G

Assays:
[1] = target: T1, ESX (full-length, His-tagged); test: EMSA; high-affinity sequence-specific; ~1 ng protein, 0.3 pmol probe; settings: tags: His-tag (pRSETA), E. coli BL21(DE3)pLysS; label: end-labeled
Description: (§1) Electrophoretic mobility shift assay (EMSA) was performed as previously described (Scott et al. (1994) *J. Biol. Chem.* 269: 19848–19858), using approximately one ng of ESX protein per condition and 0.3 pmol of end-labeled TA5 probe (+cold competitor). TA5 is a duplexed 31-mer oligonucleotide from the HER2/neu promoter, extending from −50 bp to −20 bp relative to the major transcriptional start site, that includes an Ets response element.

[2] = target: T2, ESX (271-371, ETS DNA-binding domain); test: EMSA; affinity comparable to full-length; settings: label: end-labeled
[3] = target: T1, ESX (full-length, His-tagged); test: competition; flanking mutation; relatively effective cold competitor at 50-fold excess; settings: tags: His-tag (pRSETA), E. coli BL21(DE3)pLysS
Description: (§2) Five different competing unlabeled (cold) oligonucleotides containing specific mutations in the wild-type (WT) TA5 (SEQ ID NO:32) sequence, m1–m5 (SEQ ID NOs:33–37) were added at 50-fold molar excess; gel lanes containing the excess cold competitors are labeled. […] The antisense strand sequence as shown (~40 bp to ~26 bp upstream of major transcriptional start site in HER2/neu promoter) is marked with asterisk at the hypersensitivity site within Ets response element (GGAA on sense strand). FIGS. 8c and 8d show the induction of CAT activity from two different ETS-responsive reporter constructs (p3TA5-BLCAT5, pHER2-CAT) in COS cells cotransfected with an ESX expression plasmid (pcDNAI-ESX). Mutant reporter plasmids (p3TA5P-BLCAT5, pHER2m-CAT) are identical to their normal counterparts except for alterations in the Ets response element within the TA5 sequence (GGAA to GAGA and GGAA to TTAA, respectively).
as §1

[4] = target: T1, ESX (full-length, His-tagged); test: competition; GGAA core mutation; fails to compete at 50-fold excess; settings: tags: His-tag (pRSETA), E. coli BL21(DE3)pLysS
Description: as §2, §1

Binder | binding result [3] | binding result [4] | also measured
B1 | – | – | binding result [1]: binds; binding result [2]: binds
B2 | binds | – | –
B3 | binds | – | –
B4 | – | no binding | –
B5 | binds | – | –
B6 | – | no binding | –
